{
  "source": "paper PMC6697678",
  "biological_target": "recombinant human soluble FcγRIIIa glycoprotein with a C-terminal hexahistidine tag (N-glycosylation sites kept at Asn45 and Asn162 only) (human)",
  "test": "high-speed atomic force microscopy (HS-AFM), bound-state dwell time",
  "data": [
    {"substance": "rituximab, anti-CD20 mouse/human-chimeric IgG1 (G1m17,1; Km3) (antibody)", "values": [
      {"measurement": "dwell time", "value": 1, "unit": "s"},
      {"measurement": "stoichiometry N", "value": 1}
    ]},
    {"substance": "trastuzumab, anti-HER2 humanized IgG1 (G1m17,1; Km3) (antibody)", "values": [
      {"measurement": "dwell time", "value": 1, "unit": "s"},
      {"measurement": "stoichiometry N", "value": 1}
    ]}
  ]
}
